The target in the assay is human CEACAM5 (carcinoembryonic antigen, CEA) on cells (human) (UniProt P06731). Description: flow cytometry, MKN45 cells. Set-up: unit not given beside the values.

For one molecule, AUC results are on record in US20220267464A1.

human CEACAM5 (carcinoembryonic antigen, CEA) on cells (human), sequence (P06731 35-685 E398K limits assumed): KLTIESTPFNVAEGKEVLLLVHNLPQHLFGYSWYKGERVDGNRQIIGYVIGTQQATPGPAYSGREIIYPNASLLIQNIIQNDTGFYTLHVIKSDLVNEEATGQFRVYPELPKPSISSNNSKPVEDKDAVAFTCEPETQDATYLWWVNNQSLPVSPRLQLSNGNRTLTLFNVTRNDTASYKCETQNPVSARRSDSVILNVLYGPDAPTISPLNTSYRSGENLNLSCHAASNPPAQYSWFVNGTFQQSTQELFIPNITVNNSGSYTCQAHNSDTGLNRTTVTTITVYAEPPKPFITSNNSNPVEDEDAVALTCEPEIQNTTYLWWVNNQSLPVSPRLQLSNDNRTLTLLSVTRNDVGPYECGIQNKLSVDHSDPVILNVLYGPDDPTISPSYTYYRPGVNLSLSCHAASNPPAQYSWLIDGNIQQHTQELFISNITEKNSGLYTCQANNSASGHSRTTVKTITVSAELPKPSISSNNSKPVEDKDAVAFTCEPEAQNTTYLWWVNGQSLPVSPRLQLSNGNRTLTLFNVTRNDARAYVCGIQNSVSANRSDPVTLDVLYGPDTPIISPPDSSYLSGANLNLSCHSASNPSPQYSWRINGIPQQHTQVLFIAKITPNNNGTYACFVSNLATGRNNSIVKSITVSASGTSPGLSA

B1: P1AE3125 (antibody, IgG1, V domains shown)
VH: QVQLVQSGAEVKKPGASVKVSCKASGFNIKDSYMHWVRQAPGQGLEWMGWIDPENGDTEYAPKFQGRVTMTTDTSISTAYMELSRLRSDDTAVYYCNEGTPTGPYYFDYWGQGTLVTVSS
VL: DIQMTQSPSSLSASVGDRVTITCRASSSVSYMHWYQQKPGKAPKLLIYSTSNLASGVPSRFSGSGSGTDFTLTISSLQPEDFATYYCQQRSSYPLTFGGGTKLEIK
For the molecule B1, the AUC was 3140.
